Measured values: US20230137032A1 (GlaxoSmithKline, published 2023)
Substitutions are numbered along the chain they refer to.

Experiments:
[1] = target: T1, human BCMA expressed on cells (human, UniProt Q02223 1-184); experiment: FACS on ARH77-hBCMA 10B5 transfectant cells, antibody 5 µg/mL, PE anti-mouse IgG
T1 construct: whole, on cells; also called human BCMA HEK293; ARH77-hBCMA 10B5 BCMA expressing transfectant cells
T1 sequence (looked up): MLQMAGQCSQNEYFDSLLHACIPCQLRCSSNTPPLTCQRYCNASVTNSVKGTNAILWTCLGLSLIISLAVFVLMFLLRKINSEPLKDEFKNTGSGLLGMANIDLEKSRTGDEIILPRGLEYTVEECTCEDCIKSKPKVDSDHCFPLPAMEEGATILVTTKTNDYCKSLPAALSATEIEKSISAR
Procedure: (§1) Cells were incubated for 20 mins at room temperature (RT) and then washed with FACS buffer (PBS+0.5% BSA+0.1% sodium azide) to remove unbound antibody. Cells were incubated with a secondary PE labelled anti-mouse IgG antibody for 15 minutes at RT and then washed with FACS buffer to remove unbound antibody. Cells were analysed by FACS to detect antibody bound to the cells.

[2] = target: T2, recombinant human BCMA, in house material (human, UniProt Q02223 4-53, limits assumed); experiment: ProteOn SPR, antibody captured on Protein A, 25C
T2 construct: also called Human in house BCMA; In house human BCMA
Procedure: The initial screen of the new chimeric variants from the second batch of hybridomas was carried out on the ProteOn XPR36 (Biorad). The method was as follows; Protein A was immobilised on a GLM chip (Biorad, Cat No: 176-5012) by primary amine coupling, anti-BCMA variants were then captured on this surface and recombinant human BCMA (in house material) passed over at 256, 64, 16, 4, 1 nM with a 0 nM injection (i.e. buffer alone) used to double reference the binding curves, the buffer used is the HBS-EP buffer. Regeneration of the capture surface was carried out using 50 mM NaOH. The data was fitted to the 1:1 model using the analysis software inherent to the ProteOn XPR36. The run was carried out at 25° C.

[3] = target: T2, recombinant human BCMA, in house …; experiment: ProteOn SPR run 2, antibody captured on Protein A, 25C; Run 2 (Table 9)
Procedure: (§2) The initial screen of CA8 chimeric and humanised variants was carried out on the ProteOn XPR36 (Biorad). The method was as follows; Protein A was immobilised on a GLC chip (Biorad, Cat No: 176-5011) by primary amine coupling, CA8 variants were then captured on this surface and recombinant human BCMA (in house or commercial US Biological, B0410) materials (run 2 only)) passed over at 256, 64, 16, 4, 1 nM with a 0 nM injection (i.e. buffer alone) used to double reference the binding curves, the buffer used is the HBS-EP buffer. 50 mM NaOH was used to regenerate the capture surface. The data was fitted to the 1:1 model using the analysis software inherent to the ProteOn XPR36. […] Both runs were carried out at 25° C.

[4] = target: T3, recombinant human BCMA, commercial (US Biological, B0410) (human, UniProt Q02223 5-54, limits assumed); experiment: ProteOn SPR run 2, antibody captured on Protein A, 25C
T3 construct: also called commercial human BCMA; Human commercial BCMA
T3 chain (looked up): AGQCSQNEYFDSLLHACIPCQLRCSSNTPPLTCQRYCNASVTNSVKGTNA

[5] = target: T4, recombinant cyno BCMA, in house material (cyno, UniProt A0A2K5UD97 4-52); experiment: as above
T4 construct: also called Cyno in house BCMA

[6] = target: T2, recombinant human BCMA, in house …; experiment: ProteOn SPR run 1, antibody captured on Protein A, 25C; Run 1 (Table 8)
Procedure: as §2

[7] = target: T5, recombinant human BCMA Fc 4-53 (human); experiment: ELISA, neutralisation of ligand binding to plate-coated BCMA Fc 4-53; competitor BAFF; competitor BAFF
T5 construct: also called Human BCMA CD33-hBCMA ECD (4-53) TEV-Fc; recombinant BCMA
Procedure: (§3) 96 well flat bottomed plates were coated overnight with 1 μg/mL solution of recombinant human BCMA Fc 4-53 in PBS. Following a wash step using 0.05% TWEEN20, plates were blocked with 2% Bovine Serum Albumin solution in PBS for 1 hour at room temperature. […] 40 μL of 2% BSA was added to the relevant control wells. […] Equivalent volume of 2% BSA was added to the relevant control wells. Plates were allowed to incubate for 2 hours at room temperature, after which they were washed as before. […] Following a wash step, 50 µL of a 1:4000 dilution of Streptavidin-HRP (Amersham RPN4401) was added to each well and incubated for 30 minutes at room temperature. The wash process was repeated again followed by the addition of […] of Tetramethylbenzidine substrate solution (T8665, Sigma) into each well. Plates were incubated for 20-25 minutes at room temperature, wrapped in foil. The reaction was stopped with the addition of […] of 1M H₂SO₄. Optical density was determined at 450 nm using Spectromax reader.

[8] = target: T5, recombinant human BCMA Fc 4-53; experiment: competition ELISA: binding of recombinant human APRIL to coated recombinant human BCMA Fc 4-53, biotinylated anti-APRIL and streptavidin-HRP, % of control
Procedure: as §3

[9] = target: T5, recombinant human BCMA Fc 4-53; experiment: ELISA, neutralisation of ligand binding to plate-coated BCMA Fc 4-53; competitor APRIL; competitor APRIL
Procedure: as §3

[10] = target: T5, recombinant human BCMA Fc 4-53; experiment: competition ELISA: binding of recombinant human BAFF to coated recombinant human BCMA Fc 4-53, biotinylated anti-BAFF and streptavidin-HRP, % of control
Procedure: as §3

[11] = target: T1, human BCMA expressed on cells; experiment: cell-based or functional assay
[12] = target: T3, recombinant human BCMA, commercial (US …); experiment: Biacore T100, antibody captured on Protein A, 25C, experiment 1
Procedure: (§4) Protein A was immobilised on a CMS chip (GE Healthcare, Cat No: BR-1005-30) by primary amine coupling and this surface was then used to capture the antibody molecules. Recombinant human BCMA (US Biological, B0410) was used as analyte at 256 nM, 64 nM, 16 nM, 4 nM and 1 nM. Regeneration of the capture surface was carried out using 50 mM NaOH. All binding curves were double referenced with a buffer injection (i.e. 0 nM) the data was fitted to the using the 1:1 model inherent to T100 evaluation software. The run was carried out at 25° C. and 37° C. for experiment 1 and only 37° C. for experiment 2 using HBS-EP as the running buffer.

[13] = target: T3, recombinant human BCMA, commercial (US …); experiment: Biacore T100, antibody captured on Protein A, 37C, experiment 2
Procedure: as §4

[14] = target: T3, recombinant human BCMA, commercial (US …); experiment: Biacore T100, antibody captured on Protein A, 37C
[15] = target: T4, recombinant cyno BCMA, in house material; experiment: Biacore T100, antibody captured on Protein A, 37C
[16] = target: T1, human BCMA expressed on cells; experiment: FACS on ARH77-hBCMA 10B5 transfectant cells, PE anti-human IgG, MFI
Procedure: Cells were then washed with FACS buffer (PBS+0.5% BSA+0.1% sodium azide) to remove unbound antibody. Cells were incubated with a secondary PE labelled anti-human IgG antibody for 15 minutes at RT and then washed with FACS buffer to remove unbound antibody. Cells were analysed by FACS and mean fluorescence intensity (MFI) values measured to determine binding.

[17] = target: T3, recombinant human BCMA, commercial (US …); experiment: Biacore T100, antibody captured on Protein A, 37C, experiment 1
Procedure: as §4

[18] = target: T1, human BCMA expressed on cells; experiment: FACS on H929 multiple myeloma cells, antibody 5 µg/mL, PE anti-mouse IgG
Procedure: as §1

B1: murine S332126E04 (antibody, V domains shown)
VH: QVQLQQPGAELVKPGASVKLSCKASGYTFTNYWMHWVKQRPGQGLEWIGIIHPNSGSTNYNEKFKSKATLTVDKSSSTAYMQLSSLTSEDSAVYYCARGIYDYPFAYWGQGTLVTVSS
VL: DIVLTQSPASLAVSLGQRATISCRASESVSIHGTHLMHWYQQKPGQPPKLLIYAASNLESGVPARFSGSGSETDFTLNIHPVEEEDAATYFCQQSIEDPYTFGGGTKLEIKR
notes: Murine hybridoma antibody
B1: binds [1].

B2: S332121F02 chimeric antibody (antibody, human IgG1, kappa, V domains shown)
VH: EVQLQQSGPVLVKPGASVKMSCEASGYTFTDYYMNWVKQSHGKTLEWIGVINPYNGGTDYNQKFKGKATLTVDKSSSTAYMELNSLTSEDSAVYYCARSVYDYPFDYWGQGTLVTVSS
VL: B1 VL with Y100R
notes: Section 4.10 says that the samples are new chimeric constructs (human IgG1 kappa)
Work on B2 yielded a Kd [2] of 17.3 nM.

B3: S307118G03 Chimera (antibody, human IgG1, kappa, V domains shown)
VH: EVQLQQSGPELVKPGASVKISCKASGYTFTDYYMKWVKQSHGKSLEWIGEIYPNNGGITYNQKFKGKATLTVDKSSSTAYMELRSLTSEDSAVYYCANGYEFVYWGQGTLVTVSA
VL: DIQMTQTASSLSASLGDRVTISCSASQGISNYLNWYQQKPDGTVKLLIYYTSSLHSGVPSRFSGSGSGTDYSLTISNLEPEDIATYYCQQYSKLPWTFGGGTKLELKR
notes: also called chimeric S307118G03
With B3 the Kd [3] was 3.44 nM, the Kd [4] was 0.956 nM and the binding result [5] was “no binding”. The Kd [6] was 4.11 nM.

B4: J6M0 potelligent antibody (afucosylated humanised CA8 J6M0) (antibody, human IgG1, kappa, V domains shown)
VH: QVQLVQSGAEVKKPGSSVKVSCKASGGTFSNYWMHWVRQAPGQGLEWMGATYRGHSDTYYNQKFKGRVTITADKSTSTAYMELSSLRSEDTAVYYCARGAIYDGYDVLDNWGQGTLVTVSS
VL: DIQMTQSPSSLSASVGDRVTITCSASQDISNYLNWYQQKPGKAPKLLIYYTSNLHSGVPSRFSGSGSGTDFTLTISSLQPEDFATYYCQQYRKLPWTFGQGTKLEIKR
modifications: afucosylated (Potelligent) Fc glycan
notes: human IgG1 kappa; also called J6M0 potelligent version; CA8 J6M0 Potelligent
For B4, the EC50 [7] was 0.748 µg/mL, the “IC50 (read off the curve)” value [8] was roughly 0.6 µg/mL and the EC50 [9] was 0.616 µg/mL. For the same binder, the “IC50 (read off the curve)” value [10] was roughly 0.7 µg/mL, the “IC50 for inhibition of APRIL signalling (phosphorylated NFkappaB in washed H-929 cells)” value [11] was 2.43 µg/mL and the “IC50 for inhibition of BAFF signalling (phosphorylated NFkappaB in washed H-929 cells)” value [11] was 0.91 µg/mL.

B5: CA8 humanised J9M0 (antibody, human IgG1, kappa, V domains shown)
VH: B4 VH with A24G, G27Y, S30T, M48I, V68A, I70L, K74T, A97T
VL: B4 VL
notes: Humanised CA8, heavy chain J9 with light chain M0, human IgG1 kappa; also called CA8 J9M0
In the case of B5, the Kd [12] is reported as 0.021 nM, the Kd [13] is reported as 0.052 nM and the Kd [14] is reported as 0.035 nM. The Kd [15] was 0.46 nM, the binding result [16] was “binds” and the Kd [17] was 0.042 nM.

B6: CA8 humanised J6M0 (antibody, human IgG1, kappa, V domains shown)
VH: B4 VH
VL: B4 VL
notes: Humanised CA8, heavy chain J6 with light chain M0, human IgG1 kappa; also called CA8 J6M0; humanised J6M0 (wild type)
In the case of B6, the Kd [12] is reported as 0.121 nM, the EC50 [7] is reported as 0.776 µg/mL and the “IC50 (read off the curve)” value [8] is reported as roughly 0.6 µg/mL. For the same binder, the Kd [3] was 0.308 nM, the Kd [4] was 0.086 nM and the Kd [5] was 5.63 nM. For the same binder, the EC50 [9] was 0.63 µg/mL, the Kd [13] was 0.498 nM and the “IC50 (read off the curve)” value [10] was roughly 0.7 µg/mL. The binding result [16] was “binds” and the Kd [17] was 0.698 nM.

B7: murine S332121F02 (antibody, V domains shown)
VH: B2 VH
VL: DIVLTQSPASLAVSLGQRATISCRASESVSIHGTHLMHWYQQKPGQPPKLLIYAASNLESGVPARFSGSGSETDFTLNIHPVEEEDAATYFCQQSIEDPRTFGGGTKLEIK
notes: Murine hybridoma antibody
B7: binds [18].

B8: murine S322110D07 (antibody, V domains shown)
VH: EVQLQQSGPELVKPGTSVKIPCKTSGYIFTDYSIDWVKQSHGKSLEWIGDIDPNYGDPIYNHKFKGKATLTVDRSSSTAYMELRSLTSEDTAVYFCARRATGTDWFAFWGQGTLVTVSS
VL: DIQMTQSPASLSVSVGETVTITCRASENIYNNLAWYQQKQGKSPQLLVYAATILADGVPSRFSGSGSGTQYSLKINSLQSGDFGTYYCQHFWGTPLTFGAGTKLELKR
notes: Murine hybridoma antibody; also called S3222110D07; S3322110D07
B8: binds [18].

B9: S322110D07 chimeric antibody (printed S332110D07 in Table 12) (antibody, human IgG1, kappa, V domains shown)
VH: B8 VH
VL: B8 VL
notes: Section 4.10 says that the samples are new chimeric constructs (human IgG1 kappa); also called chimeric S322110D07
Work on B9 yielded a Kd [2] of 12.1 nM.
